According to PMC5839545:
One block for each substance: values may come before it.

Experiments:
[1] = molecular target: mCherry-(s)-CENP-N (human) (UniProt Q96H22); test: dual color fluorescence cross-correlation spectroscopy (DC-FCCS); EGFP and mCherry fusion proteins co-expressed in living interphase HEp-2 or U2OS cells; spots in the nucleoplasm free of kinetochores, focal volume bleached before; 37°C; 488 and 561 nm; corrected values are the measured ones times about two
[2] = molecular target: Spc24/Spc25 137-197+129-224 (Homo sapiens) (UniProt Q8NBT2); conditions: cited from earlier work
Chain of Spc24/Spc25 137-197+129-224 (Homo sapiens) (Q8NBT2 whole entry, chain 1 of 2, the tested form may be a part): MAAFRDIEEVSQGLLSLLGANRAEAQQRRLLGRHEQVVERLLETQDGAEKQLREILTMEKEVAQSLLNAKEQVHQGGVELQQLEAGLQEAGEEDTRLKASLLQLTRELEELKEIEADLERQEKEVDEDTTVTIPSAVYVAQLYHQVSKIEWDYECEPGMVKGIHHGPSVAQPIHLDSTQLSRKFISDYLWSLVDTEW
Chain of Spc24/Spc25 137-197+129-224 (Homo sapiens) (Q9HBM1 whole entry, chain 2 of 2, further chain, the tested form may be a part): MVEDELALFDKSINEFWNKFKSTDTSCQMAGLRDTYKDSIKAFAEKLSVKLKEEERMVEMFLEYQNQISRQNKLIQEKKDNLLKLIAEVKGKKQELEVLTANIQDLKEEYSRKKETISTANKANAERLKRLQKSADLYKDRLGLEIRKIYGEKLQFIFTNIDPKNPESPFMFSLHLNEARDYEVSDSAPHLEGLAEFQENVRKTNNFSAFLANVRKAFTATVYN

[3] = molecular target: mCherry-(s)-CENP-I (human) (UniProt Q92674); test: dual color fluorescence cross-correlation spectroscopy (DC-FCCS); EGFP and mCherry fusion proteins co-expressed in living interphase HEp-2 or U2OS cells; spots in the nucleoplasm free of kinetochores, focal volume bleached before; 37°C; 488 and 561 nm; corrected values are the measured ones times about two
Chain of mCherry-(s)-CENP-I (human) (Q92674 whole entry, the tested form may be a part): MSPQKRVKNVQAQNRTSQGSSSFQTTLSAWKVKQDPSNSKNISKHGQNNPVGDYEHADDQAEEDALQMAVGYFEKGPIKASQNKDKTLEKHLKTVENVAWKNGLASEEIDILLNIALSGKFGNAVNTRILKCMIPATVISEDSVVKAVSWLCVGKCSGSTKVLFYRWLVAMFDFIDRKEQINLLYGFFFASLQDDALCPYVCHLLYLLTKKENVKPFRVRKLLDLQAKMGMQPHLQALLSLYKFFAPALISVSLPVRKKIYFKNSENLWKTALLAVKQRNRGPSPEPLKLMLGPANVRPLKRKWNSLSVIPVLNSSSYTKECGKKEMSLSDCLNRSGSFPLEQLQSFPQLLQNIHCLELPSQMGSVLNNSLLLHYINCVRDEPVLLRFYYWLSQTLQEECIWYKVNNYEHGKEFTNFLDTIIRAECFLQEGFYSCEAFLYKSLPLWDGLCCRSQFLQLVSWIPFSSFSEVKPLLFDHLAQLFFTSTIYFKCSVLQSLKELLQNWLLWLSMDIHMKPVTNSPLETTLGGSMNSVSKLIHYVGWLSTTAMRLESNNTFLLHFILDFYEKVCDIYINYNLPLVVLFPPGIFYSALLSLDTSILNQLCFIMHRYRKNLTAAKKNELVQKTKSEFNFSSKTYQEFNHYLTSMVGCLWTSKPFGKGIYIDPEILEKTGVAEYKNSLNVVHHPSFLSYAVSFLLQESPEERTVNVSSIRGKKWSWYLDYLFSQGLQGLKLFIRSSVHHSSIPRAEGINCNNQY

[4] = molecular target: mCherry-(s)-CENP-K (human) (UniProt Q9BS16); test: as above
Chain of mCherry-(s)-CENP-K (human) (Q9BS16 whole entry): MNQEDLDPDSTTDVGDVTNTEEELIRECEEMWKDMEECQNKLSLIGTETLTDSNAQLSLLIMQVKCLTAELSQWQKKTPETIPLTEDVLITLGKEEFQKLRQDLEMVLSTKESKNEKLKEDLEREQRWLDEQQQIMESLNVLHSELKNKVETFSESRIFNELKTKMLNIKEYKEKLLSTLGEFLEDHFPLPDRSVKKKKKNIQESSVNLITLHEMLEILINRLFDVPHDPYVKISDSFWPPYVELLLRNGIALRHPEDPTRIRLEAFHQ

[5] = molecular target: CENP-I-(s)-mCherry (human) (UniProt Q92674); test: as above
Chain of CENP-I-(s)-mCherry (human) (Q92674 whole entry): as the sequence (Q92674 whole entry, the tested form may be a part) above

Chain of EGFP-(l)-CENP-M (Q9NSP4 whole entry): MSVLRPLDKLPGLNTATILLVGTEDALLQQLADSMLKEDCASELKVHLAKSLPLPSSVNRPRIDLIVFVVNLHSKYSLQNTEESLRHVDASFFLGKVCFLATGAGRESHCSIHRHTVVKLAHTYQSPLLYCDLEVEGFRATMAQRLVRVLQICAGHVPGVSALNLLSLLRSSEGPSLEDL
Chain of mCherry-(s)-CENP-N (human) (Q96H22 whole entry, the tested form may be a part): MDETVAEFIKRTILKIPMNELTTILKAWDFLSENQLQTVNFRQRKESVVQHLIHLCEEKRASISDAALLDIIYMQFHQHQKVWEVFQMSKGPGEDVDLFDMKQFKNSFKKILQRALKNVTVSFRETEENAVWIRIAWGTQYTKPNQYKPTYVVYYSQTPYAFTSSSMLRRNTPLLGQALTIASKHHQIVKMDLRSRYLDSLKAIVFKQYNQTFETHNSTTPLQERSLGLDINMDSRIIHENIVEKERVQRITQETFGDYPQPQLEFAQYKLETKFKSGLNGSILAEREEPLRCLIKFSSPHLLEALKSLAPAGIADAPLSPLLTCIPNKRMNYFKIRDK
Chain of EGFP-(l)-CENP-L (Q8N0S6 whole entry): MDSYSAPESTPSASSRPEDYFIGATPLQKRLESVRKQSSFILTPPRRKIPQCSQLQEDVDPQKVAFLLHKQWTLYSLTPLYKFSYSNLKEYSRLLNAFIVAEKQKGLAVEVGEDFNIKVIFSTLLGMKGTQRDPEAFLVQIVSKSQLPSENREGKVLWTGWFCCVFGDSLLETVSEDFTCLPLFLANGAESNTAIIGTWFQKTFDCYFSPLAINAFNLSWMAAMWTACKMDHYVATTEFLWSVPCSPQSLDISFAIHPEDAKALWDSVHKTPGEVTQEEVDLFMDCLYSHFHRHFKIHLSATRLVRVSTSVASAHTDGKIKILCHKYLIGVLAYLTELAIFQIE
Chain of CENP-T 76-106 (Q96BT3 76-106): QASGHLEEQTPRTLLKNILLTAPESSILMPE

cross-correlation, measured (%) [1]: 23%
Substance: EGFP-(l)-CENP-L (from UniProt Q8N0S6 1-344) (natural protein; other documents disagree on this pair)

cross-correlation, measured (%) [5]: 22%
Substance: EGFP-(s)-CENP-H (from UniProt Q9H3R5 1-247) (natural protein)

cross-correlation, measured (%) [3]: 20%
Substance: EGFP-(s)-CENP-K (from UniProt Q9BS16 1-269) (natural protein)

Further lines, the substance ahead of its results:

Substance: CENP-K-(s)-EGFP (from UniProt Q9BS16 1-269) (natural protein)
cross-correlation, measured (%) [1]: 26%

Substance: CENP-T 76-106 (from UniProt Q96BT3)
Kd [2]: 645 nM

Substance: EGFP-(l)-CENP-M (from UniProt Q9NSP4 1-180) (natural protein)
cross-correlation, measured (%) [3]: 24%
co-migration in one cell (%) [4]: 49%
cross-correlation, corrected (%) [4]: 56 to 92%
cross-correlation, measured (%) [4]: 37%
